Source: IntAct's records for PubMed 23956175

B1: Protein disulfide isomerase Creld2 (Mus musculus), Q9CYA0 (parent)
chain: MHLLLAAAFGLLLLLPPPGAVASRKPTMCQRCRTLVDKFNQGMANTARKNFGGGNTAWEEKTLSKYEFSEIRLLEIMEGLCDSSDFECNQLLEQQEEQLEAWWQTLKKEHPNLFEWFCVHTLKACCLPGTYGPDCQECQGGSERPCSGNGYCSGDGSRQGDGSCQCHTGYKGPLCIDCTDGFFSLQRNETHSICSACDESCKTCSGPSNKDCIQCEVGWARVEDACVDVDECAAETSPCSDGQYCENVNGSYTCEDCDSTCVGCTGKGPANCKECIAGYTKESGQCTDIDECSLEEKACKRKNENCYNVPGSFVCVCPEGFEETEDACVQTAEGKVTEENPTQPPSREDL
partner: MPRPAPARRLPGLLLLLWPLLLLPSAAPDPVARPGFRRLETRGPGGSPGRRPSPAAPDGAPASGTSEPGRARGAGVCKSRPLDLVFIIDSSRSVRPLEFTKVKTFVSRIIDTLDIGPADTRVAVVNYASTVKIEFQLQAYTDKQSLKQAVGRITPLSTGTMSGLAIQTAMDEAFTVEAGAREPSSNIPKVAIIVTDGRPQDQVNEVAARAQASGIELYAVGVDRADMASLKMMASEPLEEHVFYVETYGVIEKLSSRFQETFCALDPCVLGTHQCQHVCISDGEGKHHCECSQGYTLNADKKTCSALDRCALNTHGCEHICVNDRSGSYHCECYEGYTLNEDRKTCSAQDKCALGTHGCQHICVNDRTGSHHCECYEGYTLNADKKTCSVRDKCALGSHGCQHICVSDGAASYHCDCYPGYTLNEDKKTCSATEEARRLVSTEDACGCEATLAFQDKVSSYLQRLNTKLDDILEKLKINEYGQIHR

Variants of: B1
Settings: with matn3_human MATN3, O15232

Row | effect of a mutation on the interaction | Variant
1 | causing an interaction | MHLLLAAAFGLLLLLPPPGAVASRKPTMCQRARTLVDKFNQGMANTARKNFGGGNTAWEEKTLSKYEFSEIRLLEIMEGLCDSSDFECNQLLEQQEEQLEAWWQTLKKEHPNLFEWFCVHTLKACCLPGTYGPDCQECQGGSERPCSGNGYCSGDGSRQGDGSCQCHTGYKGPLCIDCTDGFFSLQRNETHSICSACDESCKTCSGPSNKDCIQCEVGWARVEDACVDVDECAAETSPCSDGQYCENVNGSYTCEDCDSTCVGCTGKGPANCKECIAGYTKESGQCTDIDECSLEEKACKRKNENCYNVPGSFVCVCPEGFEETEDACVQTAEGKVTEENPTQPPSREDL [C32A]
